Reference: patent US20260193326A1 (published 2026)
Positions count from the first letter of the chain named.

B1: A4-040 (VHH)
VHH: VQLQESGGGLVQPGGSLRLSCAASGRIFSINTMGWYRQAPGKQRELVATVTRGGSTNYADSVKGRFTISRDNAKNTVYLQMNSLRPEDTAVYYCHVDEIRQSSWTTSNLWGQGTQVTVSS
B2: A4-016 (VHH)
VHH: B1 VHH with R26S, T32L, V50I, R52P, S55N, D60G, I99V
B3: A4-028 (VHH)
VHH: B1 VHH with R26S, I27N, S55D, Q101E
B4: A4-014 (VHH)
VHH: B1 VHH with R26S, I27R, T32S, S55N, D60G, I99V, Q101E
B5: A4-037 (VHH)
VHH: B1 VHH with R26S, D60G, V96L, I99V, L109I
B6: A4-043 (VHH)
VHH: B1 VHH with I27A, G53D, D60G, I99V
B7: A4-026 (VHH)
VHH: B1 VHH with R26S, I27N, S29R, T49P, I99V, Q101E
B8: A4-019 (VHH)
VHH: B1 VHH with P13A, R26S, I27T, V50I, I99V, L109I
B9: A4-015 (VHH)
VHH: B1 VHH with R26S, T32L, P40A, V50I, R52P, S55N, D60G, I99V
B10: A4-017 (VHH)
VHH: B1 VHH with R26S, T32L, V50I, S55N, D60G, I99V
B11: A4-013 (VHH)
VHH: B1 VHH with R26S, I27R, T32S, S55N, I99V, Q101E
B12: A4-035 (VHH)
VHH: B1 VHH with P13A, I27G, T49A, S55T, I99V
B13: A4-025 (VHH)
VHH: B1 VHH with R26S, I27N, S29R, A73P, N75D, I99V, Q101E
B14: A4-042 (VHH)
VHH: B1 VHH with I27A, G53D, I99V

Legend:
Experiment in all cases: SPR, AAV on CM5 chip;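 note: surface plasmon resonance with AAV amine-coupled to the chip as ligand, nanobodies injected as analyte over a concentration series, rate constants and affinity fitted from binding curves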
AAV8 = target: T1, AAV8
T1 construct: also called adeno-associated virus serotype 8
Description: (§1) AAV was amine-coupled to a CM5 sensor chip at a density of 500-800 response units (RU). Nanobodies were injected at seven concentrations (1-100 nM) with a flow rate of 45 μL/min, and chip regeneration was performed using glycine-HCl (pH 1.5). Binding curves at different nanobody concentrations were used to calculate kinetic parameters (Kₐ, Kd, KD) (Table 2 and FIG. 2).

AAV9 = target: T2, AAV9
T2 construct: also called adeno-associated virus serotype 9
Description: as §1

AAV5 = target: T3, AAV5
T3 construct: also called adeno-associated virus serotype 5
Description: as §1

| Binder | Kd (AAV8) | koff (AAV8) | kon (AAV8) | Kd (AAV9) | koff (AAV9) | kon (AAV9) | Kd (AAV5) | koff (AAV5) | kon (AAV5) |
| --- | --- | --- | --- | --- | --- | --- | --- | --- | --- |
| B1 | 1.71 nM | 0.00028 s⁻¹ | 164000 M⁻¹ s⁻¹ | 2.19 nM | 0.00022 s⁻¹ | 101000 M⁻¹ s⁻¹ | 3.04 nM | 0.00022 s⁻¹ | 72300 M⁻¹ s⁻¹ |
| B2 | 9.58 nM | 0.00146 s⁻¹ | 152000 M⁻¹ s⁻¹ | 131 nM | 0.00047 s⁻¹ | 3600 M⁻¹ s⁻¹ | 23.9 nM | 0.00158 s⁻¹ | 66000 M⁻¹ s⁻¹ |
| B3 | 6.34 nM | 0.00084 s⁻¹ | 133000 M⁻¹ s⁻¹ | 1.09 nM | 9e-05 s⁻¹ | 82400 M⁻¹ s⁻¹ | 26.4 nM | 0.00162 s⁻¹ | 61300 M⁻¹ s⁻¹ |
| B4 | 384 nM | 0.00109 s⁻¹ | 2840 M⁻¹ s⁻¹ | 13.3 nM | 0.00085 s⁻¹ | 64000 M⁻¹ s⁻¹ | 597 nM | 0.00529 s⁻¹ | 8860 M⁻¹ s⁻¹ |
| B5 | 11.6 nM | 0.0015 s⁻¹ | 129000 M⁻¹ s⁻¹ | 4.07 nM | 0.0004 s⁻¹ | 98300 M⁻¹ s⁻¹ | 0.88 nM | 0.00012 s⁻¹ | 136000 M⁻¹ s⁻¹ |
| B6 | 5.45 nM | 0.00104 s⁻¹ | 191000 M⁻¹ s⁻¹ | 0.278 nM | 4e-05 s⁻¹ | 144000 M⁻¹ s⁻¹ | 7.73 nM | 0.00028 s⁻¹ | 36200 M⁻¹ s⁻¹ |
| B7 | 27.2 nM | 0.00184 s⁻¹ | 67700 M⁻¹ s⁻¹ | 31 nM | 0.00253 s⁻¹ | 81600 M⁻¹ s⁻¹ | 37.4 nM | 0.00625 s⁻¹ | 167000 M⁻¹ s⁻¹ |
| B8 | 6.84 nM | 0.00077 s⁻¹ | 113000 M⁻¹ s⁻¹ | 451 nM | 0.00525 s⁻¹ | 11700 M⁻¹ s⁻¹ | 48.9 nM | 0.00156 s⁻¹ | 31900 M⁻¹ s⁻¹ |
| B9 | 9.74 nM | 0.0017 s⁻¹ | 174000 M⁻¹ s⁻¹ | 3.39 nM | 0.00017 s⁻¹ | 50100 M⁻¹ s⁻¹ | 2.76 nM | 0.00052 s⁻¹ | 189000 M⁻¹ s⁻¹ |
| B10 | 140 nM | 0.0002 s⁻¹ | 1430 M⁻¹ s⁻¹ | 0.724 nM | 4e-05 s⁻¹ | 55300 M⁻¹ s⁻¹ | 542 nM | 0.00164 s⁻¹ | 3030 M⁻¹ s⁻¹ |
| B11 | 1220 nM | 0.00737 s⁻¹ | 6060 M⁻¹ s⁻¹ | 480 nM | 0.0379 s⁻¹ | 79100 M⁻¹ s⁻¹ | 7.24 nM | 0.00011 s⁻¹ | 15200 M⁻¹ s⁻¹ |
| B12 | 1.31 nM | 0.00017 s⁻¹ | 130000 M⁻¹ s⁻¹ | 1.73 nM | 0.0001 s⁻¹ | 57800 M⁻¹ s⁻¹ | 2.52 nM | 0.0005 s⁻¹ | 199000 M⁻¹ s⁻¹ |
| B13 | 2.09 nM | 0.00026 s⁻¹ | 124000 M⁻¹ s⁻¹ | 0.737 nM | 0.00012 s⁻¹ | 163000 M⁻¹ s⁻¹ | 85.5 nM | 0.00041 s⁻¹ | 4800 M⁻¹ s⁻¹ |
| B14 | 125 nM | 0.00042 s⁻¹ | 3360 M⁻¹ s⁻¹ | 308 nM | 0.00144 s⁻¹ | 4680 M⁻¹ s⁻¹ | 152 nM | 0.00118 s⁻¹ | 7760 M⁻¹ s⁻¹ |
